Residue numbers refer to the chain shown, from its start.
B1: P13A04 Fab (Fab, V domains shown)
VH: QVQLQQPGAELVKPGASVELSCTASGFNIRDTYMYWVKQRPEQGLEWIGRIDPANGNTKFDPKFQDRATMTADTSSNTAYLQLSSLTSADTAVYYCTTYFYRYDVGGFDYWGQGTTLTVS
VL: DIVLTQSPALMAASPGEKVTITCSVSSSISSSNLHWYQQKSGTSPKLWIYGTSNLASGVPVRFSGSGSGTSYSLTISNMEAEDAATYYCQQWSSYPFTFGSGTKLEIK
notes: Murine Fab, periplasmic extract
B2: P13B01 Fab (Fab, V domains shown)
VH: B1 VH with Q1E, P7S, E19K, R30K, M34I, Q43R, D66G, R67T, M70I, A89E
VL: B1 VL with D1E, I2N, N78S
notes: as for B1
B3: P13C06 Fab (Fab, V domains shown)
VH: B1 VH with L4M, Q5K, P7S, R30T, A89E, Y101D, R102K, F108C
VL: B1 VL with D1E, H35Y, Y37F, Q39H, N78S, E80D, D83N, S93R
notes: as for B1
B4: P13C10 Fab (Fab, V domains shown)
VH: B1 VH with P7S, A89E
VL: B1 VL with D1E, I2N, Y37F, N78S
notes: as for B1
B5: P13D05 Fab (Fab, V domains shown)
VH: B1 VH with E46G, A89E
VL: B1 VL with D1E, Y37F, Q38R, N78S
notes: as for B1
B6: P13F06 Fab (Fab, V domains shown)
VH: B1 VH with P7S, A89E
VL: B1 VL with D1E, V3L, N78S
notes: as for B1
B7: P13G01 Fab (Fab, V domains shown)
VH: B1 VH with Q1E, P7S, A89E
VL: B1 VL with D1Q, N78S
notes: as for B1
B8: P13G04 Fab (Fab, V domains shown)
VH: B1 VH with Q1E, Q3K, Q5M, Q6E, P7S, V18A, A89E
VL: B1 VL with D1E, I2N, Y37F, N78S
notes: as for B1
B9: P14F01 Fab (Fab, V domains shown)
VH: B1 VH with P7S, A89E
VL: B1 VL with D1E, I2N, N78S, S94T
notes: as for B1
B10: P14G01 Fab (Fab, V domains shown)
VH: B1 VH with Q5K, Q6E, P7S, A89E
VL: B1 VL with Y37F, N78S
notes: as for B1
B11: P15C02 Fab (Fab, V domains shown)
VH: B1 VH with P7S, A89E
VL: B1 VL with I2V, L4M, S7T, N78S
notes: as for B1
B12: P15G05 Fab (Fab, V domains shown)
VH: B1 VH with Q1E, P7S, A89E
VL: B1 VL with D1E, N78S, F97L, S101A, I107L
notes: as for B1
B13: P16D04 Fab (Fab, V domains shown)
VH: B1 VH with P7S, A89E
VL: B1 VL with D1E, I2N, N78S, F97L, S101A, I107L
notes: as for B1
B14: P13B11 Fab (Fab, V domains shown)
VH: QVQLQQPGAELVKPGASVKLSCTASGFNIKDNYMDWVKQRPEQGLEWIGKIDPANGNTKYDPKFQGKATITADTSSNTAYLQLSSLTSEDTAVYYCATYYYRYDVGGFDYWGQGTTLTVS
VL: B1 VL with D1Q, Y37F, N78S
notes: as for B1
B15: P13C08 Fab (Fab, V domains shown)
VH: B14 VH with Q5K, P7S, M34I, D35H, K50S, T69S, T98S, Y100F
VL: B1 VL with I2V, L4M, S7T, Y37F, N78S
notes: as for B1
B16: P13D04 Fab (Fab, V domains shown)
VH: B14 VH with P7S
VL: B1 VL with Y37F, S44P, N78S
notes: as for B1
B17: P13E02 Fab (Fab, V domains shown)
VH: B14 VH with A24V, N32T, M34I, D35H, K50E, T58S, D61A, K63R
VL: B1 VL with D1E, I2N, Y37F, N78S
notes: as for B1
B18: P13F02 Fab (Fab, V domains shown)
VH: B14 VH with N32T, M34I, D35H, E46D, I48V, K50E, N57H
VL: B1 VL with D1E, I2N, Y37F, N78S
notes: as for B1
B19: P01C09 Fab (Fab, V domains shown)
VH: QVQLKQSGAELVKPGASVKLSCTASGFNIKDTYMYWVKQRPEQGLEWIGRIDPANGNTKYDPKLQGKATITADTSSNTVYLQLSSLTSEDTAVFYCVIYSYRYDVGGFDYWGQGTTLTVS
VL: B1 VL with D1E, N78S
notes: as for B1
B20: P13F09 Fab (Fab, V domains shown)
VH: B14 VH with P7S, M34I, D35H, K50S, T69S, D90G, T98S, Y100F
VL: B1 VL with D1E, Y37F, N78S
notes: as for B1
B21: P13H05 Fab (Fab, V domains shown)
VH: B14 VH with N32T, M34I, D35H, K50E, G56D
VL: B1 VL with D1E, I2N, Y37F, N78S
notes: as for B1
B22: P14B07 Fab (Fab, V domains shown)
VH: B14 VH with M34I, D35H, K50S, T69S, A92T, T98S, Y100F
VL: B1 VL with D1E, I2N, N78S
notes: as for B1
B23: P14F06 Fab (Fab, V domains shown)
VH: B14 VH with L4M, Q5K, P7S, M34I, D35H, K50S, T69S, T98S, Y100F
VL: B1 VL with D1E, Y37F, N78S
notes: as for B1
B24: P14G03 Fab (Fab, V domains shown)
VH: B14 VH with L4M, Q5K, P7S, N32T, M34I, D35H, E42G, K50E
VL: B1 VL with H35Y, Y37F, N78S
notes: as for B1
B25: P15B06 Fab (Fab, V domains shown)
VH: B14 VH with Q1E, P7S, N32T, D35Y, E46D, K50R, K59H, Y60F, A97S, Y100F
VL: B1 VL with D1Q, V3L, N78S, F97L, S101A, I107L
notes: as for B1

The binders below were run against T1, human LAG-3 expressed on cells (human, UniProt P18627 23-525) (assay: flow cytometry, Fab periplasmic extract on Jurkat cells expressing human LAG-3 (FIGS. 1A-1C)).
T1 construct: whole, on cells; also called CD223
T1 sequence (looked up): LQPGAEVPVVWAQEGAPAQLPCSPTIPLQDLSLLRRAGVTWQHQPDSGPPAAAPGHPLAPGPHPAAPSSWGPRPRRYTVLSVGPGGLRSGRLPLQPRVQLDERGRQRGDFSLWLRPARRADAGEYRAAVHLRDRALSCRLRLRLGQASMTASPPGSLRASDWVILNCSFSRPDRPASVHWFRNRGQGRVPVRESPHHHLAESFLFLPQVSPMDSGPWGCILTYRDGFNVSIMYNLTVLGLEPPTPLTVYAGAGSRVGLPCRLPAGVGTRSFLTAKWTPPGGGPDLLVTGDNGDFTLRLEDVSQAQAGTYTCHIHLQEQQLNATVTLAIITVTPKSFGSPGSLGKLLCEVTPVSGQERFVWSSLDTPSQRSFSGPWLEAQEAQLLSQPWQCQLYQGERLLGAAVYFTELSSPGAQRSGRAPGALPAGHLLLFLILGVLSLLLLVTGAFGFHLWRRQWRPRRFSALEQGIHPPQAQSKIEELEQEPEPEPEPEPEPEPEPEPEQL
Protocol: The anti-LAG-3 Fabs from periplasmic extracts were tested for binding to LAG-3-expressing cells using flow cytometry. Briefly, wild type and human LAG-3-expressing Jurkat cells were plated at 2×10⁵ cells/well in sample buffer (PBS (Gibco, Cat #10010-015)+0.5% FBS (Gibco, Cat #10270-106)) in 96-well U-bottom plates (Sarstedt). 22 μl of anti-LAG-3 Fab periplasmic extract and 83 μl of diluted anti-c-myc antibody (Gentaur, Clone #9E10, Cat #04-cmyc-9E10) were incubated for 30 minutes at room temperature. 100 μl of the periplasmic extract/anti-c-myc mixture was added to cells and then incubated for one hour on ice. Cells were washed three times and then incubated with a goat anti-mouse APC (BD Biosciences, Cat #550826) for 30 minutes on ice. Cells were washed three times and then analyzed with a FACS machine (BD Accuri6).
B1: binds.
B2: binds.
B3: binds.
B4: binds.
B5: binds.
B6: binds.
B7: binds.
B8: binds.
B9: binds.
B10: binds.
B11: binds.
B12: binds.
B13: binds.
B14: binds.
B15: binds.
B16: binds.
B17: binds.
B18: binds.
B19: binds.
B20: binds.
B21: binds.
B22: binds.
B23: binds.
B24: binds.
B25: binds.

Each binder was assayed against T2, human LAG-3 (human, UniProt P18627 23-450, limits assumed) (assay: Fab phage display selection; periplasmic extracts screened by ELISA or flow cytometry).
T2 construct: Selections used human LAG-3-Fc, human LAG-3-6His, a 30 aa LAG-3 peptide and/or cells with cynomolgus LAG-3; also called CD223
T2 sequence (looked up): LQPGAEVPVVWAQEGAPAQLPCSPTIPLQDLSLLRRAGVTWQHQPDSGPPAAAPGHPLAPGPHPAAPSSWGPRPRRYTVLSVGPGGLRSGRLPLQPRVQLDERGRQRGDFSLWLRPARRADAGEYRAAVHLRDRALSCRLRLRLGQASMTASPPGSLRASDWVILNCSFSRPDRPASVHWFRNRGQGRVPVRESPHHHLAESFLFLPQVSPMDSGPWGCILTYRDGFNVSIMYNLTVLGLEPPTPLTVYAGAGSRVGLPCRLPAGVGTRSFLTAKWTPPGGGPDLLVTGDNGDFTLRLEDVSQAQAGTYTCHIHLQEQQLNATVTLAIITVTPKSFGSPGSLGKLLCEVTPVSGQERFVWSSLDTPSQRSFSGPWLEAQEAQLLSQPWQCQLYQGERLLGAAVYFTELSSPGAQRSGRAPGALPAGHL
Source text: Anti-LAG-3 antibodies were identified by generation and selection of an immunized Fab phage display library. […] Per mouse, a Fab library was then generated by random-primed cDNA using total RNA as a template to amplify variable regions from mouse antibody genes. Heavy and kappa chain amplicons were combined and cloned into phagemid vectors. […] The 30 amino acid human LAG-3 peptide is a biotinylated peptide comprising the amino acid sequence of […] (SEQ ID NO: 199). Periplasmic extracts of selected Fab clones were then screened by ELISA or flow cytometry. Antibody sequencing and off-rate analysis were then performed on anti-LAG-3 Fabs.
B1: binds.
B2: binds.
B3: binds.
B4: binds.
B5: binds.
B6: binds.
B7: binds.
B8: binds.
B9: binds.
B10: binds.
B11: binds.
B12: binds.
B13: binds.
B14: binds.
B15: binds.
B16: binds.
B17: binds.
B18: binds.
B19: binds.
B20: binds.
B21: binds.
B22: binds.
B23: binds.
B24: binds.
B25: binds.

From US20250206818A1 (AGENUS, published 2025)
